Reference: article PMC5344418, “Directed evolution of a soluble human DR3 receptor for the inhibition of TL1A induced cytokine secretion” (PLoS ONE, 2017)
Each block holds one molecule with its values, some of them ahead of it.

What was measured:
Test in all cases: SPR; ProteOn XPR36; DR3 variants (5 ug, acetate buffer pH 5.5) immobilised on a GLC chip, BSA as reference; TL1A run at 100, 50, 25, 12.5 and 6.25 nM, 30 ul/min, 300 s, 10 min dissociation; PBS with 2 mM DTT; Langmuir single binding site model
[1] = biological target: DR3 variant O6 (DR3 extracellular domain-Fc) (human) (UniProt Q93038)
[2] = biological target: DR3 variant H3 (DR3 extracellular domain-Fc) (human) (UniProt Q93038)
[3] = biological target: T1, TNF-like 1A (TL1A) (UniProt O95150 72-251); details: both partners purified
T1 construct: TL1A (TNF-like 1A), the cytokine run over immobilised DR3 variants in SPR and added to cells; also called TL1A cytokine
T1 sequence (looked up): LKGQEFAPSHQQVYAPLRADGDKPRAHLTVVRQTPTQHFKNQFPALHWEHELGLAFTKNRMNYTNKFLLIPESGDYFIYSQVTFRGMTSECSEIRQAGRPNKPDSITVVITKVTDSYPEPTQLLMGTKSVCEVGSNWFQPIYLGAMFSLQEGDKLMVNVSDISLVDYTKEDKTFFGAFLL

Kd [1]: 9.83 nM
koff [1]: 0.000357 s⁻¹
kon [1]: 36300 M⁻¹ s⁻¹
Kd [2]: 8.26 nM
koff [2]: 0.000351 s⁻¹
kon [2]: 42600 M⁻¹ s⁻¹
Molecule: TNF-like 1A (TL1A) (from UniProt O95150 72-251) (ligand)

Kd [3]: 44.9 nM
koff [3]: 0.00072 s⁻¹
kon [3]: 16000 M⁻¹ s⁻¹
B1: native DR3-Fc (human DR3 extracellular domain fused with human IgG1 Fc) (Fc fusion, UniProt Q93038 25-199, looked up)
chain: QGGTRSPRCDCAGDFHKKIGLFCCRGCPAGHYLKAPCTEPCGNSTCLVCPQDTFLAWENHHNSECARCQACDEQASQVALENCSAVADTRCGCKPGWFVECQVSQCVSSSPFYCQPCLDCGALHRHTRLLCSRRDTDCGTCLPGFYEHGDGCVSCPTSTLGSCPERCAAVCGWRQ
modifications: N-linked glycosylation (shown by Endo-H cleavage)
notes: amplified from an EST cDNA clone (Open Biosystems); pFUSE vector (Invivogen); also called WT; soluble native DR3; source: HEK293T, transfected, conditioned medium (ELISA screen); 293F (HEK293F), transfected, purified (MonoQ, SP, butyl HIC); not shown: Fc (human IgG1), C-terminal, kept
